The values below come from US20170189519A1.

Experiment [1] addresses H1-mini2-cluster1+5+6-GCN4 without leader sequence and with FLAG-thrombin-foldon-HIS. The experiment is described as follows: ELISA, coated CR6261, HEK293F culture medium; the reference itself. (ELISA stands for enzyme-linked immunosorbent assay.)
Experiment [2] has the same target. The experiment is described as follows: ELISA, coated CR6261, HEK293F culture medium; average of the parental.
Experiment [3] shares this target. The experiment is described as follows: ELISA, coated CR6261, P. pastoris culture medium; the reference itself.
For experiment [4] the target is unchanged. The experiment is described as follows: ELISA, coated CR6261, P. pastoris culture medium; average of the parental.

Take CR6261 (antibody): the fold increase of ratio over parental SEQ ID NO: 6 in experiment [1] and in experiment [3] was 1 fold throughout. For the same substance, the figures for the CR6261 binding signal in experiment [2] and in experiment [4] were 5.66e+06 and 238000, respectively. The ratio of CR6261 binding signal to HTRF signal was determined as 17.4 in experiment [2] and 5.94 in experiment [4].
